Measurements: US20180155451A1 (published 2018)

Key:
FcγRIIb = biological target: T1, FcγRIIb (human, UniProt P31994 43-217); assay: SPR (Biacore), antibody captured, FcγR as analyte; relative binding
T1 construct: extracellular domain; also called FcgRIIb; 2b
T1 sequence (looked up): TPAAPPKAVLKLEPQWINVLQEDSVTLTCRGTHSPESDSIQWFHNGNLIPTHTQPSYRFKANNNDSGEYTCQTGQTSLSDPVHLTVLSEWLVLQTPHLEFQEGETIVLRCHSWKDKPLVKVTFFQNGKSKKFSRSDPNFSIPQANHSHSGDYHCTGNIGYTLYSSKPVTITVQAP
Experimental: (§1) The heterodimerized antibodies He Abs in which one of the H chains was introduced with an alteration were assayed for their binding activities to each activating FcγR and inhibitory FcγR according to the method described in Example 4. […] The activating FcγRs in FIGS. 26, 27, 28, and 29 are FcγRIa, FcγRIIa (R), FcγRIIa (H), and FcγRIIIa, respectively.
(§2) Analysis of interaction between objective antibody and the FcγR was carried out using Biacore T100 (GE Healthcare). HBS-EP+ (GE Healthcare) was used as the running buffer, and the measurement temperature was set to 25° C. Chips produced by immobilizing the antigen peptide by the amine coupling method to a Series S Sencor Chip CM5 (GE Healthcare), or alternatively, chips produced by allowing preliminarily biotinylated antigen peptides to interact with and immobilize onto a Series S Sensor Chip SA (certified) (GE Healthcare) were used. Antibodies of interest were captured onto an antigen peptide-immobilized chip, and allowed to interact to each FcγR diluted with running buffer. To regenerate and repeatedly use the chip, the antibodies captured on the chip were washed off by reacting 10 mM glycine-HCl, pH 1.5.

FcγRIIa R [1] = biological target: T2, FcγRIIa R (human, UniProt P12318 34-217); assay: as above
T2 construct: extracellular domain; also called FcgRIIa R type; 2aR
T2 sequence (looked up): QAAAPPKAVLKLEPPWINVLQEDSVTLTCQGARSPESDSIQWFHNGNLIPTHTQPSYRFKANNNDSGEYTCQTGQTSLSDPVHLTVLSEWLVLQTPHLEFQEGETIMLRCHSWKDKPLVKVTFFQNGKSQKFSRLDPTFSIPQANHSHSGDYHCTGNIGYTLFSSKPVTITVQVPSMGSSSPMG
Experimental: as §1, §2

FcγRIIa R [2] = biological target: T2, FcγRIIa R; assay: SPR; He/Con_2aR divided by He/Con_2b (FcγRIIb as reference)
Experimental: as §1, §2

Binder | He/Con_2b (IIb binding) (FcγRIIb) | He/Con_2aR (IIaR binding) (FcγRIIa R [1]) | IIaR/IIb (He_2aR/2b) (FcγRIIa R [2])
GpH7-A5/GpH7-B3 variant P271_15Y/GpL16-k0 (antibody, human IgG1, kappa, heterodimerized antibody, mutation in the GpH7-B3 chain only; also called He Ab) heavy 1: not shown heavy 2: not shown light: DIVMTQSPLSLPVTPGEPASISCQASESLVHSNRNTYLHWYLQKPGQSPQLLIYKVSNRFSGVPDRFSGSGSGTDFTLKISRVEAEDVGVYYCSQNTHVPPTFGQGTKVEIERTVAAPSVFIFPPSDEQLKSGTASVVCLLNNFYPREAKVQWKVDNALQSGNSQESVTEQDSKDSTYSLSSTLTLSKADYEKHKVYACEVTHQGLSSPVTKSFNRGEC | 52.3 % of GpH7-A5/GpH7-B3/GpL16-k0 (=100) | 70.7 % of GpH7-A5/GpH7-B3/GpL16-k0 (=100) | 1.35 ratio
GpH7-A5/GpH7-B3 variant P271_04F/GpL16-k0 (antibody, human IgG1, kappa, heterodimerized antibody, mutation in the GpH7-B3 chain only; also called He Ab) heavy 1: not shown heavy 2: not shown light: DIVMTQSPLSLPVTPGEPASISCQASESLVHSNRNTYLHWYLQKPGQSPQLLIYKVSNRFSGVPDRFSGSGSGTDFTLKISRVEAEDVGVYYCSQNTHVPPTFGQGTKVEIERTVAAPSVFIFPPSDEQLKSGTASVVCLLNNFYPREAKVQWKVDNALQSGNSQESVTEQDSKDSTYSLSSTLTLSKADYEKHKVYACEVTHQGLSSPVTKSFNRGEC | 59.5 % of GpH7-A5/GpH7-B3/GpL16-k0 (=100) | 75.9 % of GpH7-A5/GpH7-B3/GpL16-k0 (=100) | 1.28 ratio
GpH7-A5/GpH7-B3 variant H268_11K/GpL16-k0 (antibody, human IgG1, kappa, heterodimerized antibody, mutation in the GpH7-B3 chain only; also called He Ab) heavy 1: not shown heavy 2: not shown light: DIVMTQSPLSLPVTPGEPASISCQASESLVHSNRNTYLHWYLQKPGQSPQLLIYKVSNRFSGVPDRFSGSGSGTDFTLKISRVEAEDVGVYYCSQNTHVPPTFGQGTKVEIERTVAAPSVFIFPPSDEQLKSGTASVVCLLNNFYPREAKVQWKVDNALQSGNSQESVTEQDSKDSTYSLSSTLTLSKADYEKHKVYACEVTHQGLSSPVTKSFNRGEC | 83 % of GpH7-A5/GpH7-B3/GpL16-k0 (=100) | 100 % of GpH7-A5/GpH7-B3/GpL16-k0 (=100) | 1.21 ratio
GpH7-A5/GpH7-B3 variant Q295_04F/GpL16-k0 (antibody, human IgG1, kappa, heterodimerized antibody, mutation in the GpH7-B3 chain only; also called He Ab) heavy 1: not shown heavy 2: not shown light: DIVMTQSPLSLPVTPGEPASISCQASESLVHSNRNTYLHWYLQKPGQSPQLLIYKVSNRFSGVPDRFSGSGSGTDFTLKISRVEAEDVGVYYCSQNTHVPPTFGQGTKVEIERTVAAPSVFIFPPSDEQLKSGTASVVCLLNNFYPREAKVQWKVDNALQSGNSQESVTEQDSKDSTYSLSSTLTLSKADYEKHKVYACEVTHQGLSSPVTKSFNRGEC | 64.7 % of GpH7-A5/GpH7-B3/GpL16-k0 (=100) | 83.6 % of GpH7-A5/GpH7-B3/GpL16-k0 (=100) | 1.29 ratio
GpH7-A5/GpH7-B3 variant Q295_13S/GpL16-k0 (antibody, human IgG1, kappa, heterodimerized antibody, mutation in the GpH7-B3 chain only; also called He Ab) heavy 1: not shown heavy 2: not shown light: DIVMTQSPLSLPVTPGEPASISCQASESLVHSNRNTYLHWYLQKPGQSPQLLIYKVSNRFSGVPDRFSGSGSGTDFTLKISRVEAEDVGVYYCSQNTHVPPTFGQGTKVEIERTVAAPSVFIFPPSDEQLKSGTASVVCLLNNFYPREAKVQWKVDNALQSGNSQESVTEQDSKDSTYSLSSTLTLSKADYEKHKVYACEVTHQGLSSPVTKSFNRGEC | 56.9 % of GpH7-A5/GpH7-B3/GpL16-k0 (=100) | 73.7 % of GpH7-A5/GpH7-B3/GpL16-k0 (=100) | 1.3 ratio
GpH7-A5/GpH7-B3 variant Q295_01G/GpL16-k0 (antibody, human IgG1, kappa, heterodimerized antibody, mutation in the GpH7-B3 chain only; also called He Ab) heavy 1: not shown heavy 2: not shown light: DIVMTQSPLSLPVTPGEPASISCQASESLVHSNRNTYLHWYLQKPGQSPQLLIYKVSNRFSGVPDRFSGSGSGTDFTLKISRVEAEDVGVYYCSQNTHVPPTFGQGTKVEIERTVAAPSVFIFPPSDEQLKSGTASVVCLLNNFYPREAKVQWKVDNALQSGNSQESVTEQDSKDSTYSLSSTLTLSKADYEKHKVYACEVTHQGLSSPVTKSFNRGEC | 46 % of GpH7-A5/GpH7-B3/GpL16-k0 (=100) | 60.9 % of GpH7-A5/GpH7-B3/GpL16-k0 (=100) | 1.32 ratio
GpH7-A5/GpH7-B3 variant Q295_11K/GpL16-k0 (antibody, human IgG1, kappa, heterodimerized antibody, mutation in the GpH7-B3 chain only; also called He Ab) heavy 1: not shown heavy 2: not shown light: DIVMTQSPLSLPVTPGEPASISCQASESLVHSNRNTYLHWYLQKPGQSPQLLIYKVSNRFSGVPDRFSGSGSGTDFTLKISRVEAEDVGVYYCSQNTHVPPTFGQGTKVEIERTVAAPSVFIFPPSDEQLKSGTASVVCLLNNFYPREAKVQWKVDNALQSGNSQESVTEQDSKDSTYSLSSTLTLSKADYEKHKVYACEVTHQGLSSPVTKSFNRGEC | 70.4 % of GpH7-A5/GpH7-B3/GpL16-k0 (=100) | 88.9 % of GpH7-A5/GpH7-B3/GpL16-k0 (=100) | 1.26 ratio
GpH7-A5/GpH7-B3 variant Q295_16H/GpL16-k0 (antibody, human IgG1, kappa, heterodimerized antibody, mutation in the GpH7-B3 chain only; also called He Ab) heavy 1: not shown heavy 2: not shown light: DIVMTQSPLSLPVTPGEPASISCQASESLVHSNRNTYLHWYLQKPGQSPQLLIYKVSNRFSGVPDRFSGSGSGTDFTLKISRVEAEDVGVYYCSQNTHVPPTFGQGTKVEIERTVAAPSVFIFPPSDEQLKSGTASVVCLLNNFYPREAKVQWKVDNALQSGNSQESVTEQDSKDSTYSLSSTLTLSKADYEKHKVYACEVTHQGLSSPVTKSFNRGEC | 62.7 % of GpH7-A5/GpH7-B3/GpL16-k0 (=100) | 81.3 % of GpH7-A5/GpH7-B3/GpL16-k0 (=100) | 1.3 ratio
